assay: yeast display, Sf9 membrane polyspecificity reagent, FACS + sequencing; frameworks hold sequencing errors
Procedure, shortened: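 Sorting gates, low and high (top ~1%), were placed on anti-HA fluorescence to track expression and on streptavidin fluorescence to track reagent binding. A clone's polyreactivity label is taken from the gate it came out of. The reagent was 10% biotinylated, detergent-solubilized Sf9 membrane, applied for 1 hour at 4 °C to galactose-induced yeast display cells.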

Sequence | polyreactivity (PSR sort gate)
QVQLVESGGGLVQAGGSLRLSCAASGGIFSSYAMGWYRQAPGKERELVATITSRGGSTYYADSVKGRFTISRDNAKNTVYLQMNSLKPEDTAVYYCAKEYRYYRRRYDYWGQGTQVTVSS | high polyreactivity
QVQLVESGGGLVQAGGSLRLSCAASGGIFSTYTMGWYRQAPGKERELVAAISQSGGTTYYADSVKGRFTISRDNAKNTVYLQMNSLKPEDTAVYYCAAEPTQADYDYWGQGTQVTVSS | low polyreactivity
QVQLVESGGGLVQAGGSLRLSCAASGGIFVQYTMGWYRQAPGKERELVAAISTGGSTYYADSVKGRFTISRDNAKNTVYLQMNSLKPEDTAVYYCAVVYRSQYSRYTSQWKEYYWGQGTQVTVSS | low polyreactivity
QVQLVESGGGLVQAGGSLRLSCAASGGIFVRYAMGVYRQAPGKERELVAAITGTGSSTYYADSVKGRFTISRDNAKNTVYLQMNSLKPEDTAVYYCAAARYSNYGYWGQGTQVTVSS | high polyreactivity
QVQLVESGGGLVQAGGSLRLSCAASGGIFWANAMGWHRQAPRKERELVATIHTIGDGTNYADSVKGRFTISRDNAKNTVYLQMNSLKPEDTAVYYCAAPYYYFAVYYGYIFEYDYWGQGTQVTVSS | low polyreactivity
QVQLVESGGGLVQAGGSLRLSCAASGGIFYHNAMGWYRQAPGKERELVAAISGRGGRTYYADSVKGRFTISRDNAKNTVYLPMNSLKPEDTAVYYCNAVVYSPYRYEYWGQGTQVTVSS | low polyreactivity
QVQLVESGGGLVQAGGSLRLSCAASGGIFYHNAMGWYRQAPGKERELVAAISGRGGRTYYADSVKGRFTISRDNAKNTVYLQMNSLKPEDTAVYYCAAGGQARHDYWGQGTQVTVSS | low polyreactivity
QVQLVESGGGLVQAGGSLRLSCAASGGIFYINAMGWYRQAPGKERELVAAISRDGTITYYADSVKGRFTISRDNAKNTVYLQMNSLKPEDTAVYYCAADASIQSWYSIYDYWGQGTQVTVSS | high polyreactivity
QVQLVESGGGLVQAGGSLRLSCAASGGIFYLYAMGWYRQAPGKERELVASINWRSASTYYADSVKGRFTISRDNAKNTVYFQMNSLKPEDTAVYYCNVQWYGGYDYWGQGTQVTVSS | low polyreactivity
QVQLVESGGGLVQAGGSLRLSCAASGGIFYNYAMGWYIQAPGKERELVAAITYSGVRTNYADSVKGRFTISRDNAKNTVYLQMNSLKPEDTAVYYCNAAVVYVKMDYWGQGTQVTVSS | low polyreactivity
QVQLVESGGGLVQAGGSLRLSCAASGGIFYPNAMGWYRQAPAKERELVAANTSGGSTSYADSVKGRFTISRDNAKDTVYLQMNSLKPEDTAVYYCAASTTAYAYVNYGSWGQGTQVTVSS | low polyreactivity
QVQLVESGGGLVQAGGSLRLSCAASGGIFYSNAMGWYRPAPGKERELVAAISSSGGSTYYADSVKGRFTISRDNAKNTVYLQMNSLKPEDTAVYYCAARPTVRPVVRFGYWGQGTQVTVSS | high polyreactivity
QVQLVESGGGLVQAGGSLRLSCAASGGIFYSNGMGWYRQAPGKERELVAAITGGDITDYADSVKGRFTISRDNAKNTVYLQMNSLKPEDTAVYFCAVESYPPDYGPRFGSWGQGTQVTVSS | low polyreactivity
QVQLVESGGGLVQAGGSLRLSCAASGGIFYTNAMGWYRQAPGKERELVAAISRSGGSTYYADSVKGRFTISRDNAKNTVYLQMNSLKPEDTAVYYCAARVYVYGYSYDYWGQGTQVTVSS | high polyreactivity
QVQLVESGGGLVQAGGSLRLSCAASGGIFYYYAMGWYRQAPGKERELVATISNGGSTYYADSVKGRFTISRDNAKNTVYLQMNSLKPEDTAVYYCAADSSSDQYRYFPFDHWGQGTQVTVSS | high polyreactivity
QVQLVESGGGLVQAGGSLRLSCAASGGIFYYYTMGWYRQAPGKERELVAAINWSGGSTYYADSVKGRFTISRDNAKNTVYLQMNSLKPEDTAVYYCNAVYRHPVTYGYWGQGTQVTVSS | high polyreactivity
QVQLVESGGGLVQAGGSLRLSCAASGGIITYYDMGWYSQAPGKDREFVAAINVSGTRTYYADSVKGRFTISRDNAKNTVYLEMNSLKPEDTAVYYGATRYRVGFFSWYDYWGQGTQVTVSS | high polyreactivity
QVQLVESGGGLVQAGGSLRLSCAASGGILDTYAMGWYRQAPGKERELVAAITSGGNTNYADSVKGRFTISRDNAKNTVYLQMNSLKPEDSAVYYCNVVTWYYVFRPWEYEYWGQGTQVTVSS | low polyreactivity
QVQLVESGGGLVQAGGSLRLSCAASGGILDTYAMGWYRQAPGKERELVAAITSGGNTNYADSVKGRFTISRDNAKNTVYLQMNSLKPEDTAVYYCNVVTWYYVFRPWEYDYWGQGTQVTVSS | low polyreactivity
QVQLVESGGGLVQAGGSLRLSCAASGGILETNAMGWYRQAPGKERELVAAIDFSAGSTYYADSVKGRFTISRDNAKNTVYLQMNSLKPEDTAVYYCATRLGVLYDYWGQGTQVTVSS | low polyreactivity
QVQLVESGGGLVQAGGSLRLSCAASGGILHSYAMGWYRQAPGKERELVAAISGSGGSTYYADSVKGRFTISRDNAKNTVYLQMNSLKPEDTAVYYCNAVHHYPEHIGGGYWGQGTQVTVSS | low polyreactivity
QVQLVESGGGLVQAGGSLRLSCAASGGILSDYAMGWYRQAPGKERELVAAITISGGRTNYADSVKGRFTFSRDNAKNTVYLQMNSLTPEDTAVYYCYKLPWEYDYWGQGTQVTVSS | low polyreactivity

Sequence | polyreactivity (PSR sort gate)
QVQLVESGGGLVQAGGSLRLSCAASGGIVRLYGMGWDRQAPGKEMEFVAAISSGGGRTYYADSVKGRFTLSRDNAKNTVYLQMNSLKPEDTAVYYCNAELNWYYYIHLDYWGQGTQVTVSS | low polyreactivity
QVQLVESGGGLVQAGGSLRLSCAASGGNFESNAMGWYRQAHGKERELVAAISWSGGTTYYADSVKGRFTISRDNAKNTDFLQMNSLKPEDTAVYYCAKVPFSYRSFGYWGQGTQVTVSS | low polyreactivity
QVQLVESGGGLVQAGGSLRLSCAASGGNFKRYAMGWYRQAPGKERELVAAISGRGGSTYYADSVKGRFTISRDYAKNTVYLQMNSLKPEDTAVYYCDAYWRYRTDMDYWGQGTQVTVSS | high polyreactivity
QVQLVESGGGLVQAGGSLRLSCAASGGNFRLYAMGWYSPAPGKERELVAAINGGGSTNYADSVKGRFTISRDNAKNTVYLQMNSLKPEDTAVYYCNAVQYYRFQVYEYDYWGQGTQVTVSS | high polyreactivity
QVQLVESGGGLVQAGGSLRLSCAASGGNFRYYAMGWYRQAPGKERELVAAITRGGRTSYADSVKGRFTISRDNAKNTVYLQMNSLKPEDSAVYYCNAKRPYQEHNSYGYWGQGSQVTVSS | high polyreactivity
QVQLVESGGGLVQAGGSLRLSCAASGGNFSLNAMGWYRQAPGKERELVATISWSGTSTHYADSVKGRFTISRDNAKNTVYLQMNSLKPEDTAVYYCNTRLYGRDYSWYDYWGQGTQVTVSS | high polyreactivity
QVQLVESGGGLVQAGGSLRLSCAASGGNFYYYVMGWYRQAPGKERELVAAITWSGGSTSYADSVKGRFTISRDNAKNTVYLQMNSLKPEDTAVYYCNADSTTQDYDYWGQGTQVSVSS | low polyreactivity
QVQLVESGGGLVQAGGSLRLSCAASGGTCSKYAMGWYRQARGKEREFVAAITVSGGGTYYADSVKGRFTISRDNAKNTVYLQMNSLKTEDTAVYYCAADLAWTASDYWGQGTQVTLSS | low polyreactivity
QVQLVESGGGLVQAGGSLRLSCAASGGTFAEYVMGRYRQAPGKERELVAAIDWSGGSTYYADSVKGRFTISRDNAKNTVYFQMNSLKPEDTALYYCAKGPGYGFYKLMSYDSWGQGTQVTVSS | low polyreactivity
QVQLVESGGGLVQAGGSLRLSCAASGGTFAGYAMGWYRLAPGKERELVAAISWSSGRTYYADSVKGRFTISRDNAKNTVYLQMNSLKPEDTAVYYCNVLRYRGYDYWGQGTQVTVSS | high polyreactivity
QVQLVESGGGLVQAGGSLRLSCAASGGTFAGYAMGWYRQAPGKERELVAAIRWSGGRTYYADSVKGRFTISRDNAKNSVYLQMNSLKPEDTAVYYCAANGHGRVYFEMDYWGQGTQVTVSS | high polyreactivity
QVQLVESGGGLVQAGGSLRLSCAASGGTFARNTMGWYRQAPGKERELVAAITRGGSSTYYADSVKGRFTISRDNAKNTVYLQMNSLKPEDTAVYYCNKSLRWRYPYYGTTGRYDYWGQGTQVTVSS | high polyreactivity
QVQLVESGGGLVQAGGSLRLSCAASGGTFAVNVMGWYRQAPGKERELVAAITSNGGSTYYADSVKGRFTISRDNAKNTVYLQMNSLTPEDTAVYYCAAEGSGWYTGHYYYWGQGTQVTVSS | low polyreactivity
QVQLVESGGGLVQAGGSLRLSCAASGGTFAYYTMGWYRQAPGKERELVAAISSGGRTNYADSVKGRFTISRDNAKNTVYLQMNSLKPEDTAVYYCAAESPLVYYSYPAYYKYYEYEYWGQGTQVTVSS | low polyreactivity
QVQLVESGGGLVQAGGSLRLSCAASGGTFDNYAMGWYRQAHGKERELVAAISWSGDNTYYADSVKGRFTISRDNAKNTVYLQMNSLKPEVTAVYYCAAVYFWYSYDEGYTAYDYWGQGTQVTVSS | low polyreactivity
QVQLVESGGGLVQAGGSLRLSCAASGGTFDVYAMGWYRQAPGKERELVAAISIGGSTYYADSVKGRFTISRDNAKNTVSLQMNSLKPEDTAVYYCAADVNSRYSWRRWYAYDYWGQGTQVTVSS | high polyreactivity
QVQLVESGGGLVQAGGSLRLSCAASGGTFENYPMGWYRQAPGKERELVAAISSGGSTNYADSVKGRFTISRDNAKNTVYLQMNSLKPEDTAVYYCARYRVWGSNGHKLFHYDYWGQGTQVTVSS | low polyreactivity
QVQLVESGGGLVQAGGSLRLSCAASGGTFFVYMGGYRQAPGNERELVADISGSGGGTYYADSVKGRFTISRDNAKNTVYLQMNSLKPEDTAVYYCATDVPTGIIRMYWGQGTQVTVSS | low polyreactivity
QVQLVESGGGLVQAGGSLRLSCAASGGTFGRYAMGWYRQAPGKERELVAAITWRVGSTYADSVKGRFTISRDNAKNTVYLQMNSLKPEDTAVYYCAARRRAPGTKYYYWGQGTQVTVSS | low polyreactivity
QVQLVESGGGLVQAGGSLRLSCAASGGTFGSNAMGWYRQAPGKERELLAAISFSDGITYYADSVKGRFTISRDNAKNTVYLQMNSLKPEDSAVYYCAAELGTSRGGDTMEYWGQGTKVTVSS | high polyreactivity
QVQLVESGGGLVQAGGSLRLSCAASGGTFGVYTMGWYRQAPGKERELVAAISWSGGSTYYADSVKGRFTISRDNAKNTVYLQMNSLKPEDTAVYYCAARLKYGRIRVDHWGQGTQVTVSS | high polyreactivity

Source: the nanobody polyreactivity screen of Harvey et al. (2022)
